How the values were obtained:
[1] = biological target: T1, Purified oat phytochrome A, Pr spectral form, autophosphorylated, P06593
T1 chain: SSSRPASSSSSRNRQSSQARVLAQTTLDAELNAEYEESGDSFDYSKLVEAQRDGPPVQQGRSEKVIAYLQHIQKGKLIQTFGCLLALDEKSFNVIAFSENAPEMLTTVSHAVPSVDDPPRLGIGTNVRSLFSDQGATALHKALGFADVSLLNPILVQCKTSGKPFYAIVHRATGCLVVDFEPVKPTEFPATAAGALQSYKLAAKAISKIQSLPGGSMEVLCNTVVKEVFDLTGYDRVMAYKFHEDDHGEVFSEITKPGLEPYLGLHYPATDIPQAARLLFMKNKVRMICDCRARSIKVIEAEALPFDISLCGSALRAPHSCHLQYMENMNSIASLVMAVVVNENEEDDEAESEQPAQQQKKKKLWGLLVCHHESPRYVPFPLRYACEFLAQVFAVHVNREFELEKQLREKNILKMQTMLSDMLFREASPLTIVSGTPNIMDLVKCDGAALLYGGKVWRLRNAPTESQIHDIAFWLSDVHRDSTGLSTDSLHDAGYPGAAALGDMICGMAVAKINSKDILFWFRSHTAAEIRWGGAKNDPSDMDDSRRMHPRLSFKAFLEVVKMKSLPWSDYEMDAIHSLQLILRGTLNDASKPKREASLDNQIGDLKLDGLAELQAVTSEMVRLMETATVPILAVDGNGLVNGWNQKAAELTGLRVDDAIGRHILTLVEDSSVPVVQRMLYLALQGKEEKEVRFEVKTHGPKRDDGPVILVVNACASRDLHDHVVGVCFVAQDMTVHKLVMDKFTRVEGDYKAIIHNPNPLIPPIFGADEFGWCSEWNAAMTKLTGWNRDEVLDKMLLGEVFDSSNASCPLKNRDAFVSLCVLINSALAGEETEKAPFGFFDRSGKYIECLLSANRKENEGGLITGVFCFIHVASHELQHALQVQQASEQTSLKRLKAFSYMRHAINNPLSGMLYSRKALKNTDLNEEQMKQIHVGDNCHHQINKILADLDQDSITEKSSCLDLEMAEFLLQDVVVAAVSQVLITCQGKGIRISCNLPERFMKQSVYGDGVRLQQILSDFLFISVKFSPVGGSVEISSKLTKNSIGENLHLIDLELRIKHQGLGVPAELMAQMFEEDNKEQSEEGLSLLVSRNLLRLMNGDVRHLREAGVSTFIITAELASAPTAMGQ

[2] = biological target: T2, Purified oat phytochrome A, Pfr spectral form, autophosphorylated, P06593
T2 chain: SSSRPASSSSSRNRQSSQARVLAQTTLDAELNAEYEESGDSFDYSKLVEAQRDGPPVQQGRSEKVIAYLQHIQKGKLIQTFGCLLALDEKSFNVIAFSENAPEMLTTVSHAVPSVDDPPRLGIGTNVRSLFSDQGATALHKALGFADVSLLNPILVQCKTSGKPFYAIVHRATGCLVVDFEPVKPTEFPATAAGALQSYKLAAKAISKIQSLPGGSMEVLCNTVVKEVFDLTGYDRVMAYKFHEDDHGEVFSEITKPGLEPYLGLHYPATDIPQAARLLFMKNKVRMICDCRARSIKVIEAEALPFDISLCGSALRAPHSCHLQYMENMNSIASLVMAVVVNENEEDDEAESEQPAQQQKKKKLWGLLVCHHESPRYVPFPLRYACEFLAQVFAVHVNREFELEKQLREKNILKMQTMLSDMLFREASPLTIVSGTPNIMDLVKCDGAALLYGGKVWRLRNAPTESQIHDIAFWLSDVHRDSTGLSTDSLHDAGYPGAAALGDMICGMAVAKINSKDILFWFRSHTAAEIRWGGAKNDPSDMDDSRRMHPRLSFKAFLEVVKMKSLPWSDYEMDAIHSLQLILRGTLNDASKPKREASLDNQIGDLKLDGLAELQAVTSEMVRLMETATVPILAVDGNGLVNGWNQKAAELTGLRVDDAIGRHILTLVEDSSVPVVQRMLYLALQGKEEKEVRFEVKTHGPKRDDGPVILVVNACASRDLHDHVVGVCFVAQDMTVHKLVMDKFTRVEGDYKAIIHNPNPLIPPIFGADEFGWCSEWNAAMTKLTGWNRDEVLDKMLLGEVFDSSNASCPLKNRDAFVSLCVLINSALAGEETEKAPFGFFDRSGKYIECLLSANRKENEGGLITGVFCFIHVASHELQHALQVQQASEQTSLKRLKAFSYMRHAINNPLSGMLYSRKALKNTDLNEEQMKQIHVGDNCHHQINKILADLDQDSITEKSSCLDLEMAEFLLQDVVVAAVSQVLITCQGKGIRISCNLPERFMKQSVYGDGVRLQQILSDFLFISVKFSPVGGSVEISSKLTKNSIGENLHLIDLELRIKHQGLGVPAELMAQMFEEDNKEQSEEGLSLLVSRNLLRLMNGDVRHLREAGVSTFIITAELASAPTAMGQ

[3] = biological target: T3, Purified oat phytochrome A, autophosphorylated in the presence of gamma-[32P]ATP, P06593
T3 chain: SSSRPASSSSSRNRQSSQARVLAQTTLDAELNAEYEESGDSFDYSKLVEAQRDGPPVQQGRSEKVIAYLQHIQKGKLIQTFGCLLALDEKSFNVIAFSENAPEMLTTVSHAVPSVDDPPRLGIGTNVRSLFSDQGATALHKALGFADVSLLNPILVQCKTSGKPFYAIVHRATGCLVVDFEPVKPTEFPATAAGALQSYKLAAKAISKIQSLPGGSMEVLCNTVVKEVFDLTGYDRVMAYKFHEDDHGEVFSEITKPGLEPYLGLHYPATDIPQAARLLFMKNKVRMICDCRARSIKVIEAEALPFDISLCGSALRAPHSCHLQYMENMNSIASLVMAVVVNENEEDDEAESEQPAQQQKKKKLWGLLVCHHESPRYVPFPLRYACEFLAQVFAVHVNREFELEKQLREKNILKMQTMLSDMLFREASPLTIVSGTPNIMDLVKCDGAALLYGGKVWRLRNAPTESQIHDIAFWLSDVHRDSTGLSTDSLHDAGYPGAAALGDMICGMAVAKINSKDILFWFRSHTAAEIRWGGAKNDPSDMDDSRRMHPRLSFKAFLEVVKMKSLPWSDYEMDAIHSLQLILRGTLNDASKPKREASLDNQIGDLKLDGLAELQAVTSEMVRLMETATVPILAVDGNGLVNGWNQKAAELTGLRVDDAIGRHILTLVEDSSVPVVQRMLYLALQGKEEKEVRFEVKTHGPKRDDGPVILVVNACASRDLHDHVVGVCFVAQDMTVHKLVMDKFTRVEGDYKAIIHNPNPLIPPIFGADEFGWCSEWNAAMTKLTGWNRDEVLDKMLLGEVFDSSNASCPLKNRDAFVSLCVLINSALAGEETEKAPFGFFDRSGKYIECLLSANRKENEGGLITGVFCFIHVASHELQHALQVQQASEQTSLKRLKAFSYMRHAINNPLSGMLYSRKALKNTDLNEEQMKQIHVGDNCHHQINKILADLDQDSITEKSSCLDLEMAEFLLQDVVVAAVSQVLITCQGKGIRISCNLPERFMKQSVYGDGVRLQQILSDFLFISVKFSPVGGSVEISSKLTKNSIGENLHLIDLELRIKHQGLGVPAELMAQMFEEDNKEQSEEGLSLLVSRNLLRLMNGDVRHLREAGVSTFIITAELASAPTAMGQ

B1: Recombinant PP2AC-JD protein expressed in E. coli BL21 from pGEX-4T-1 as a GST fusion, GST tag removed by thrombin (protein)
chain: DLDQWISKVKDGQHLLEDELQLLCEYVKEILIEESNVQPVNSPVTVCGDIHGQFHDLMKLFQTGGHVPETNYIFMGDFVDRGYNSLDVFTILLLLKARYPANITLLRGNHESRQLTQVYGFYDECQRKYGNANATRYCTDVFDYLTLSAIIDGTVLCVHGGLSPDIRTIDQIRVIERNCEIPHEGPFCDLMWSDPEDIETWAVSPRGAGWLFGSRVTSEFNHINNLDLVCRAHQLVQEGLKYMFQDKGLVTVWSAPNYCYRCGNVASILSFNENMEREVKFFTETEENNQMRGPRTGVPYFL
dephosphorylation of 32P-autophosphorylated phytochrome A (SDS-PAGE, autoradiography) [1]: The Pfr phytochrome A was more efficiently dephosphorylated by the PP2AC-JD than the Pr spectral form | dephosphorylation of 32P-autophosphorylated phytochrome A (SDS-PAGE, autoradiography) [2]: more efficiently dephosphorylated by the PP2AC-JD than the Pr spectral form | dephosphorylation of 32P-autophosphorylated phytochrome A (SDS-PAGE, autoradiography) [3]: efficiently dephosphorylated by the PP2AC-JD only in the presence of Fe^2+ or Zn^2+
